# Source: patent US20040138440A1, “Aspergillus fumigatus cofilin” (priority 2004, published 2004)
# Biological target: T1, preassembled pyrene-actin filaments (Gallus gallus, UniProt P68139)
# T1 construct: Mince 2 kg of fresh, boneless, skinless chicken breast in a pre-chilled meat grinder; from tissue; host or cells: chicken breast (skeletal) muscle, via acetone powder
# Assay: pyrene actin assay (decrease in fluorescence of filamentous pyrene-actin on addition of cofilin)
# Assay type: biochemical, chicken
# Conditions: addition of stoichiometric amounts of cofilin to preassembled pyrene-actin filaments; FIG. 3
# Source text: The effect of cofilin on preassembled pyrene-actin filaments is monitored. Two cofilin activities—binding to actin polymer and enhancing depolymerization—combine to reduce the relative fluorescence intensity. Addition of stoichiometric amounts of cofilin results in a 3-5 fold reduction in fluorescence intensity. In both these assays, any inhibitor will result in an increase in relative fluorescence intensity. For both graphs, the x-axes show cycle number (1 cycle/30 sec) and the y-axes reflect fluorescence in arbitrary units..
# Assays for the interaction of A. fumigatus cofilin and any other cofilin with actin in 384-well plates using a fluorescence as the detection means have been developed. […]
# Upon addition of cofilin to filamentous pyrene-actin, two well-characterized biochemical activities can be monitored. First, cofilin binds to the filaments and partially quenches the pyrene fluorescence. Second, it induces filament disassembly, further decreasing pyrene fluorescence. The decrease in fluorescence that results when cofilin is added to filamentous actin is monitored (FIG. 3). An inhibitor of the interaction of cofilin with pyrene-actin will result in an increase in fluorescence. […]
# Thaw Actin, Pyrene-Actin and Cofilin pellets on ice or at room temp. […] Take readings at OD290. […]
# Add 25 ul of sample into each well. […] Take Pyrene-Kinetic readings (Fluorostar setting) at 150 cycles, 360 to […].
molecule,measurement,value
"A. fumigatus cofilin: proteins or polypeptides present in A. fumigatus that are capable of binding actin; amino acid sequence SEQ ID NO:2; expressed in E. coli (protein, listed as Aspergillus fumigatus, Cofilin sequence, expressed in E. coli) MALASGVSIADECITAFNDFRMSGNKANKTKFIIFKIADNKKEVVIDEVSQEEDYEVFRSRLEATKDSKGNPAPRYAVYDVEYDLGGGEGKRSKIVFISWVPSDTPTLWSMIYASTRENLKNALNIHTSIHADDKGDIEWKTVLAEASGGKAGK",reduction in fluorescence intensity,3-5 fold
